# T1: IFN-γ (human, UniProt P01579 24-166, limits assumed)
# T1 sequence (looked up): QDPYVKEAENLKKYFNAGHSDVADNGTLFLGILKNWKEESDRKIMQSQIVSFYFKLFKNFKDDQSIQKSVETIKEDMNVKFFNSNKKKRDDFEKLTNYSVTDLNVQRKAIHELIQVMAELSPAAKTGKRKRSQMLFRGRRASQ
# Target: T1, IFN-γ
# Assay: cell-based or functional assay
Binder,"IC50, A549 cell proliferation assay (ALAMARBLUE); sample stored 3 months at pH 5, 4° C. [µg/mL]","IC50, A549 cell proliferation assay (ALAMARBLUE); sample stored 3 months at pH 5, 37° C. [µg/mL]"
"full length human IgG1 antibody against human IFN-γ, filtered purified bulk (FPB) (antibody, V domains shown, N-glycan sites at amino acids 28 and 297 of SEQ ID NO:17 (VH and CH2); heterogeneously sialylated) VH: EVQLVQSGAEVKKPGESLKISCKGSGYNFTSYWIGWVRQMPGKGLELMGIIYPGDSDTRYSPSFQGQVTISADKSISTAYLQWSSLKASDTAMYYCGSGSYFYFDLWGRGTLVTVSS VL: EIVLTQSPGTLSLSPGERATLSCRASQSVSSSYLAWYQQKPGQAPRLLIYGASSRATGIPDRFSGSGSGTDFTLTISRLEPEDFAVYYCQRSGGSSFTFGPGTKVDIKR",0.0023,0.0027
"full length human IgG1 antibody against human IFN-γ, purified isoform Peak 0 (antibody, V domains shown, N-glycan sites at amino acids 28 and 297 of SEQ ID NO:17 (VH and CH2); sialylation isoform Peak 0) VH: EVQLVQSGAEVKKPGESLKISCKGSGYNFTSYWIGWVRQMPGKGLELMGIIYPGDSDTRYSPSFQGQVTISADKSISTAYLQWSSLKASDTAMYYCGSGSYFYFDLWGRGTLVTVSS VL: EIVLTQSPGTLSLSPGERATLSCRASQSVSSSYLAWYQQKPGQAPRLLIYGASSRATGIPDRFSGSGSGTDFTLTISRLEPEDFAVYYCQRSGGSSFTFGPGTKVDIKR",0.0024,0.0033
"full length human IgG1 antibody against human IFN-γ, purified isoform Peak +1 (antibody, V domains shown, N-glycan sites at amino acids 28 and 297 of SEQ ID NO:17 (VH and CH2); sialylation isoform Peak +1) VH: EVQLVQSGAEVKKPGESLKISCKGSGYNFTSYWIGWVRQMPGKGLELMGIIYPGDSDTRYSPSFQGQVTISADKSISTAYLQWSSLKASDTAMYYCGSGSYFYFDLWGRGTLVTVSS VL: EIVLTQSPGTLSLSPGERATLSCRASQSVSSSYLAWYQQKPGQAPRLLIYGASSRATGIPDRFSGSGSGTDFTLTISRLEPEDFAVYYCQRSGGSSFTFGPGTKVDIKR",0.0018,0.0028
"full length human IgG1 antibody against human IFN-γ, purified isoform Peak +2 (antibody, V domains shown, N-glycan sites at amino acids 28 and 297 of SEQ ID NO:17 (VH and CH2); sialylation isoform Peak +2) VH: EVQLVQSGAEVKKPGESLKISCKGSGYNFTSYWIGWVRQMPGKGLELMGIIYPGDSDTRYSPSFQGQVTISADKSISTAYLQWSSLKASDTAMYYCGSGSYFYFDLWGRGTLVTVSS VL: EIVLTQSPGTLSLSPGERATLSCRASQSVSSSYLAWYQQKPGQAPRLLIYGASSRATGIPDRFSGSGSGTDFTLTISRLEPEDFAVYYCQRSGGSSFTFGPGTKVDIKR",0.002,0.0032
"full length human IgG1 antibody against human IFN-γ, purified isoform Peak -2 (antibody, V domains shown, N-glycan sites at amino acids 28 and 297 of SEQ ID NO:17 (VH and CH2); sialylation isoform Peak -2) VH: EVQLVQSGAEVKKPGESLKISCKGSGYNFTSYWIGWVRQMPGKGLELMGIIYPGDSDTRYSPSFQGQVTISADKSISTAYLQWSSLKASDTAMYYCGSGSYFYFDLWGRGTLVTVSS VL: EIVLTQSPGTLSLSPGERATLSCRASQSVSSSYLAWYQQKPGQAPRLLIYGASSRATGIPDRFSGSGSGTDFTLTISRLEPEDFAVYYCQRSGGSSFTFGPGTKVDIKR",0.0037,0.0038
"full length human IgG1 antibody against human IFN-γ, purified isoform Peak -1 (antibody, V domains shown, N-glycan sites at amino acids 28 and 297 of SEQ ID NO:17 (VH and CH2); sialylation isoform Peak -1) VH: EVQLVQSGAEVKKPGESLKISCKGSGYNFTSYWIGWVRQMPGKGLELMGIIYPGDSDTRYSPSFQGQVTISADKSISTAYLQWSSLKASDTAMYYCGSGSYFYFDLWGRGTLVTVSS VL: EIVLTQSPGTLSLSPGERATLSCRASQSVSSSYLAWYQQKPGQAPRLLIYGASSRATGIPDRFSGSGSGTDFTLTISRLEPEDFAVYYCQRSGGSSFTFGPGTKVDIKR",0.003,0.0033
